Measurements as given in PMC11282748.

Target: foldase protein PrsA of Staphylococcus aureus MW2 (recombinant, without signal peptide) (Staphylococcus aureus MW2)
Assay: SEC-MALS; Superdex 200 Increase 10/300; ~1 mg of protein loaded; 50 mM Tris-HCl, 150 mM NaCl, 2.5% (v/v) glycerol, pH 7.8; flow 0.4 ml/min

## foldase protein PrsA of Staphylococcus aureus MW2 (recombinant, without signal peptide) (natural protein)
  stoichiometry N: 2
